Patent publication CN110407938A (BEIJING JOINN BIOTECHNOLOGY CO LTD, dated 2019)

Target: T1, TIM-3 (分析物, SPR analyte)
T1 construct: also called TIM-3抗原; 分析物(TIM-3)
Test: SPR (Biacore T200), 25°C; antibody captured by anti-human IgG Fc on a CM5 chip, TIM-3 as analyte at 0-100 nM, 1:1 binding model

T1 sequence (Q8TDQ0 22-202): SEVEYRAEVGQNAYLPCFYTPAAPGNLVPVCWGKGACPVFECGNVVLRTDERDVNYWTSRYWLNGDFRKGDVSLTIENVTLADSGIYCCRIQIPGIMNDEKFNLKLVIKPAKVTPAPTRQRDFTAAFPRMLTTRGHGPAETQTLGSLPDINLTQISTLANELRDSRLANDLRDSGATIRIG

B1: 抗TIM-3抗体 (anti-TIM-3 monoclonal antibody of the invention) (antibody, V domains shown)
VH: QVQLQESGPGLVKPGETLSLTCAVSGGSFSRGGYYWNWIRQPPGKGLEWIGYIYYSGSTNYNPSLKSRVTISLDTSKNQFSLKLSSVTAEDTAVYYCARDHYTSSYNYDYWGQGTLVTVSS
VL: EIVLTQSPATLSLSPGERATLSCRASESVQSYIAWYQQKPGQAPRLLIYNASQRSTGIPARFSGSGSGTDFTLTISSLEPEDFAVYYCQQRFSWPPTFGQGTKLEIK
notes: The variable regions were cloned into the ZY-CDMO vector and expressed in CHO cells; The antibody was purified on Protein A, captured by an anti-human IgG Fc antibody and detected with goat anti-human-HRP, so it carries a human IgG Fc; It came from a phage antibody library; also called 抗TIM-3单克隆抗体; 本发明抗TIM-3抗体
Work on B1 yielded a Kd of 6.41 nM.
